This assay addresses T1, 4.1R-CTD64 (last 64 amino acids of the C-terminal domain of human protein 4.1R) (human, 15N labelled).
T1 construct: protein 4.1R, human, last 64 amino acids (part of the C-terminal domain, CTD); Cloned with NdeI into a modified pET15b with a TEV site; also called 4.1R-CTD64 subdomain; 64 amino acids subdomain
T1 chain: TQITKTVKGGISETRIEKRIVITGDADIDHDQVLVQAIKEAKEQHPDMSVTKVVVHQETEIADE
Nature of the assay: NMR titration; 15N labelled 4.1R-CTD64 (0.1 mM, 100 mM Na2HPO4, 90% H2O/10% D2O) titrated with NuMA1 peptide up to 20:1, followed by 1H-15N HSQC, pH 4.9, 25°C; chemical shift perturbation analysis. Particulars: both partners purified.

B1: NuMA1 interacting peptide (N1I), residues 1785-1810 of NuMA1 (peptide)
peptide: Ac-DSGRKTRSARRRTTQIINITMTKKLD-NH2
notes: also called NI1; non-phosphorylated NuMA peptide; source: synthetic peptide, bought: Caslo (Denmark)
With B1, the binding result is recorded as “binds”.
